# Test results as given in publication PMC7134557.
# Substrate: Nc1ncnc2c1ncn2[C@@H]1O[C@H](COP(=O)(O)OP(=O)(O)OP(=O)(O)O)[C@@H](O)[C@H]1O
# Test: purified protein
protein,measurement,value
BaMV helicase-like domain (of BaMV replicase) (Bamboo mosaic virus) (protein) YSPDIERAAAFARDVMSNKTGAILPKQSHEWKTTLKRKCKLAPRQTLISVIHGAGGSGKSRALQEYMRNNKEDPIVTILPTNELRADWKAKLPAHDPDMFMTFENALLIPKGNVVIMDDYTKLPRGYIEAYVQNSPMLDLLILTGDPRQSEHFESAEGNTINDLSPSPVVFSAYARYYINATHRNNQDLANALGVYSEKQGKTRISVSNHIEDGRHTLVPSQIKQRNYVSMGRKTSTYAGCQGITASRVQVIIDNDTAKCSHQVLYTAFSRAADEIHFCNTMTDEKQFWAKVKCTPYLQAILNLTKEHSLPDP,Km,148 ± 5 µM
same,kcat,82 s⁻¹
